Molecular target: T1, ClpB, wild type (E. coli, UniProt P63284 1-857)
T1 construct: ClpB, E. coli, wild type; also called wt ClpB; wt-ClpB; source: E. coli BB4561, purified as previously described
Test: co-sedimentation; G6PDH50 aggregates (1 μM) incubated 10 min at 30 °C in refolding buffer with DnaJ, 3.5 μM wt DnaK or variant, with or without 5 μM wt or mutant ClpB, 3 mM ATP with regenerating system, no GrpE; 122,000 x g, 40 min, 4 °C; pellets on SDS-PAGE or NuPAGE, densitometry, controls with native G6PDH subtracted
Conditions: both partners purified

B1: DnaK_(1–507) (domain or fragment)
chain: not shown
notes: DnaK, E. coli, residues 1-507 (lid deleted); also called Δlid; Δlid-DnaK
- binding result: binds
